Data reported in patent US20170096478A1, “THERAPEUTIC AGENT FOR INFLAMMATORY DISEASE” (Josai University Corporation, priority 2012, published 2017).

Key:
[1] = tested on: lipopolysaccharide (LPS)-induced lethal sepsis; experiment: Test Example 8-5: measurement of inflammation-associated cytokine in serum; assay type: in vivo, BALB/c mice; conditions: vs control group
Method: (§1) BALB/c mice (bodyweight of 20 g to 30 g when starting the experiments, n=10) were raised in a plastic cage under SPF and thermo-hydrostat (22±1° C., 55±5%) conditions under 12-hour light-dark cycle. Foods and water were supplied ad libitum. Then, by intraperitoneally administering LPS to the mice at a dose of 40 mg/kg, lipopolysaccharide (LPS)-induced lethal sepsis as an inflammatory disease was induced in the same manner as Test Example 7. SSV mAb dissolved in physiological saline was intraperitoneally administered totally 3 times, i.e., at 30 minutes before, 6 hours after and 12 hours after the intraperitoneal administration of LPS, in an amount of 100 μg/dose in terms of the amount of SSV mAb. The survival of the animals thereafter was tested. To the control group, IgG (SIGMA) dissolved in physiological saline was administered in place of SSV mAb in the same manner.
In Test Example 8, serum was obtained from venous blood of the control group and the SSV mAb-administered group every 3 hours. Then, the concentrations of inflammatory cytokine (TNF-α, IL-1β, IL-6) and inhibitory cytokine (IL-10) in obtained samples were measured by using a commercially available measurement kit using ELISA.

histone H2B = experiment: ELISA affinity for histone H2B; assay type: binding; conditions: absorbance at 405 nm; 5 μg/mL antibody; compared with histone H1
Method: The Affinities between histone H1 or core histone and SSVmAb were determined by ELISA.
A 96 well microplate was coated with histone H1, H2A, H2B, H3 or H4. Each histone used was dissolved in 100 mM sodium carbonate buffer (pH 9.3). The plate was washed with PBS-tween 20 (0.05%), and blocked with 3% skim milk and 1% BSA for 1 hour. To each well, 5 μg/mL SSVmAb was added, and incubated for 1 hour. Bound SSVmAb was detected using peroxidase (HRP) conjugated anti mouse IgG1 Ab (SIGMA), and incubated for 1 hour. Bound SSVmAb was detected using the ABTS [2,2′-azino-bis(3-ethylbenzothiazoline-sulfonic acid)] substrate solution, and absorbance at 405 nm was measured using Multiskan Ascent (Thermo Fisher Scientific Inc., Waltham, Mass.).

[2] = tested on: lipopolysaccharide (LPS)-induced lethal sepsis; experiment: Test Example 8-2: histone concentration in serum and inflammatory tissue (lung); assay type: in vivo, BALB/c mice
Method: as §1
In Test Example 8, heart-derived blood or lung tissue was obtained from control group and SSV mAb-administered group under general anesthesia according to the method conducted by Hasegawa et al. (Surg Res. 2012 May 1; 174(1):136-41.). The concentration of histone H1, histone H3 and H4 of the obtained samples were measured by using a commercially available measurement kit using ELISA.

[3] = tested on: renal ischemia reperfusion injury; experiment: Test Example 10: acute renal failure due to renal ischemia reperfusion injury, check test 2; assay type: in vivo, male Wistar rats; conditions: autopsy after the end of the test; vs control group
Method: (§2) Right kidney was removed from male Wistar rat (n=4) under general anesthesia, and then left kidney of the rat was subjected to ischemia reperfusion with vascular clip to prepare a model. For SSV mAb-administered group, SSV mAb was then administered in an amount of 10 mg/kg 30 minutes before preparing the model and immediately after the reperfusion Test was carried out in the same manner as Test Example 10 except that male Wistar rats (n=4-6) were used and except that, for SSV mAb-administered group, SSV mAb was administered in an amount of 10 mg/kg 30 minutes before preparing the model and 6 hours after the reperfusion. For control, IgG (SIGMA) was administered in place of SSV mAb in the same manner. Then, the concentrations of urea nitrogen (BUN) and creatinine (Cr) in serum at 24 hours after preparing the model were measured and the nephropathy level was evaluated. Further, the rats were subjected to autopsy after the end of the test, and histological evaluation was performed.

[4] = tested on: renal ischemia reperfusion injury; experiment: Test Example 9: acute renal failure due to renal ischemia reperfusion injury, check test 1; assay type: in vivo, male Wistar rat; conditions: autopsy after the end of the test; vs control group
Method: as §2, with “For control” for “Test was carried out in the same manner as Test Example 10 except that male Wistar rats (n=4-6) were used and except that, for SSV mAb-administered”, “group,” for “group, SSV mAb was administered in an amount of 10 mg/kg 30 minutes before preparing the model and 6 hours after the reperfusion. For control,”, “Then,” for “Then, the concentrations of”

B1: SSV mAb: monoclonal antibody (IgG1) produced by Mouse-Mouse hybridoma SSV-C 93-3 (NITE BP-972), raised against peptide … (SEQ ID NO:1)-KLH conjugate (antibody, V domains shown)
VH: EIQLQQSGAELVKPGASVKISCKASGYSFTGYNMNWVKQSHGKSLEWIGNINPYYGSTSYNQKFKGKATLTVDKSSSTAYMQLNSLTSEDSAVYYCARSPYYSNYWRYFDYWGQGTTLTVSS
VL: QIVLSQSPAILSASPGEKVTMTCRASSSVSYMHWYQQKPGSSPKPWIYATSNLASGVPARFSGSGSGTSYSLTISRVEAEDAATYYCQQWSSNPWTFGGGTKLEIK
IL-1β concentration in blood sample [1]: significantly decreased | IL-6 concentration in blood sample [1]: significantly decreased | IL-10 concentration in blood sample [1]: significantly increased | TNF-α concentration in blood sample [1]: significantly decreased | affinity for histone H2B (ELISA) (histone H2B): higher than the affinity for histone H1 | concentration of histone H3 in blood sample ([2]; FIG. 10A, vs control group): lower than the control group | concentration of histone H3 in inflammatory tissue (lung) ([2]; FIG. 10B, vs control group): lower than the control group | concentration of histone H1 in blood sample ([2]; serum, during the test): almost kept constant without increase | concentration of histone H3 in blood sample ([2]; stated under the histone H4 results, FIG. 11A, vs control group): tend to be lower than the control group | concentration of histone H3 in inflammatory tissue (lung) ([2]; stated under the histone H4 results, FIG. 11B, vs control group): tend to be lower than the control group | concentration of histone H1 in inflammatory tissue (lung) ([2]; vs control group): more significantly decreased than that from the control group | histological evaluation of kidney [3]: better than that of the control group | histological evaluation of kidney [4]: better than that of the control group
